Here are results for five molecules from US20240383958A1, “APELIN RECEPTOR AGONISTS AND USES THEREOF” (VISTERRA, INC., priority 2023, published 2024).

Assay [1] concerns the target T1, apelin receptor (AGTRL1) on CHO-K1 cells (UniProt P35414 1-380, limits assumed).
T1 sequence (looked up): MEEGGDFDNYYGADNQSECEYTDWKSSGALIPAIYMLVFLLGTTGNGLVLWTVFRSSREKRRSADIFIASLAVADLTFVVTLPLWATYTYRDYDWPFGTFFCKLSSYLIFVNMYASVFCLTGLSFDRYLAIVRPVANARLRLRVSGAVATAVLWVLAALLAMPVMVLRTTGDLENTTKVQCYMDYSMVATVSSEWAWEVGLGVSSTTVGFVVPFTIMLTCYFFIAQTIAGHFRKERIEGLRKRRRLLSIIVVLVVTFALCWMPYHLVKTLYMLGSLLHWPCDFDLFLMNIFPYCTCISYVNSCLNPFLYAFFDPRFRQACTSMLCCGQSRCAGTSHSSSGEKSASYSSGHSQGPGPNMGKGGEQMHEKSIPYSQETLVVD
As to the kind of experiment: cell-based or functional assay.

Assay [2] deals with T2, APJ-eGFP fusion protein on CHO-M1 cells (UniProt P35414 1-380).
T2 sequence (looked up): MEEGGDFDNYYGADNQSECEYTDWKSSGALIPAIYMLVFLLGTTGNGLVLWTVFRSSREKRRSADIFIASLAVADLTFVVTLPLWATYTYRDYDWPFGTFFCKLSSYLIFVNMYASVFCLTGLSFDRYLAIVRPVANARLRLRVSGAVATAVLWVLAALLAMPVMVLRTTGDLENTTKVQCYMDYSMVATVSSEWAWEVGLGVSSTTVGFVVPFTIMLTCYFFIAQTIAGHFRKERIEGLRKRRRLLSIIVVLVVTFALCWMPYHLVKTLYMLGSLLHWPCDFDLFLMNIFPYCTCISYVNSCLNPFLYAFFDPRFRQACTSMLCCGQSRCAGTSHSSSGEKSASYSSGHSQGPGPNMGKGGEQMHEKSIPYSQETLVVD
As to the kind of experiment: cell-based or functional assay.

B1: ELA-A (Fc fusion)
chain: DKTHTSPPSPAPEAAGGPSVFLFPPKPKDTLMISRTPEVTCVVVDVSHEDPEVKFNWYVDGVEVHNAKTKPREEQYNSTYRVVSVLTVLHQDWLNGKEYKCKVSNKALPAPIEKTISKAKGQPREPQVYTLPPSREEMTKNQVNLTCLVKGFYPSDIAVEWESNGQPENNYKTTPPVLDSDGSFFLNSTLTVDKSRWQQGNVFSCSVMHEALHNHYTQKSLSLSPGKGGGGSGGGGSGGGGSKLRKHNCLQRRCMPLHSRVPFP
With B1, in assay [1], the “ERK EC50” value was determined as 0.19 nM, the “beta-Arrestin EC50 (nM) Exp. 1” value came to 90.1 nM, the “beta-Arrestin EC50 (nM) Exp. 2” value was determined as 42.6 nM and the “cAMP EC50 (nM) Exp. 1” value was 0.85 nM. Further, the “cAMP EC50 (nM) Exp. 2” value in assay [1] is 1.4 nM. Also, the “Internalization Score” value in assay [2] came out at 3.

B2: ELA-E (Fc fusion)
chain: DKTHTSPPSPAPEAAGGPSVFLFPPKPKDTLMISRTPEVTCVVVDVSHEDPEVKFNWYVDGVEVHNAKTKPREEQYNSTYRVVSVLTVLHQDWLNGKEYKCKVSNKALPAPIEKTISKAKGQPREPQVYTLPPSREEMTKNQVNLTCLVKGFYPSDIAVEWESNGQPENNYKTTPPVLDSDGSFFLNSTLTVDKSRWQQGNVFSCSVMHEALHNHYTQKSLSLSPGKGGGGSGGGGSGGGGSKLRKHNCLQRRCMPLHRRVPFP
For the molecule B2, in assay [1], the “beta-Arrestin EC50 (nM) Exp. 2” value was determined as 352 nM, the “cAMP EC50 (nM) Exp. 1” value was found to be 4.42 nM and the “cAMP EC50 (nM) Exp. 2” value came to 2.4 nM. Besides, the “Internalization Score” value in assay [2] is 0.

B3: ELA-C (Fc fusion)
chain: DKTHTSPPSPAPEAAGGPSVFLFPPKPKDTLMISRTPEVTCVVVDVSHEDPEVKFNWYVDGVEVHNAKTKPREEQYNSTYRVVSVLTVLHQDWLNGKEYKCKVSNKALPAPIEKTISKAKGQPREPQVYTLPPSREEMTKNQVNLTCLVKGFYPSDIAVEWESNGQPENNYKTTPPVLDSDGSFFLNSTLTVDKSRWQQGNVFSCSVMHEALHNHYTQKSLSLSPGKGGGGSGGGGSGGGGSKLRKHNCLQRRCMILHSRVPFP
In the case of B3, in assay [1], the “ERK EC50” value came out at 1.13 nM, the “beta-Arrestin EC50 (nM) Exp. 1” value is 535 nM, the “beta-Arrestin EC50 (nM) Exp. 2” value came to 75.1 nM and the “cAMP EC50 (nM) Exp. 1” value is 0.577 nM. Besides, the “cAMP EC50 (nM) Exp. 2” value in assay [1] came out at 1 nM. Further, the “Internalization Score” value in assay [2] came out at 2.

B4: ELA-D (Fc fusion)
chain: DKTHTSPPSPAPEAAGGPSVFLFPPKPKDTLMISRTPEVTCVVVDVSHEDPEVKFNWYVDGVEVHNAKTKPREEQYNSTYRVVSVLTVLHQDWLNGKEYKCKVSNKALPAPIEKTISKAKGQPREPQVYTLPPSREEMTKNQVNLTCLVKGFYPSDIAVEWESNGQPENNYKTTPPVLDSDGSFFLNSTLTVDKSRWQQGNVFSCSVMHEALHNHYTQKSLSLSPGKGGGGSGGGGSGGGGSKLRKHNCLQRRCMPLHQRVPFP
On to B4, for which, in assay [1], the “beta-Arrestin EC50 (nM) Exp. 2” value is 922 nM, the “cAMP EC50 (nM) Exp. 1” value stood at 10.7 nM and the “cAMP EC50 (nM) Exp. 2” value worked out at 4.4 nM. Moreover, the “Internalization Score” value in assay [2] stood at 1.

B5: ELA-B (Fc fusion)
chain: DKTHTSPPSPAPEAAGGPSVFLFPPKPKDTLMISRTPEVTCVVVDVSHEDPEVKFNWYVDGVEVHNAKTKPREEQYNSTYRVVSVLTVLHQDWLNGKEYKCKVSNKALPAPIEKTISKAKGQPREPQVYTLPPSREEMTKNQVNLTCLVKGFYPSDIAVEWESNGQPENNYKTTPPVLDSDGSFFLNSTLTVDKSRWQQGNVFSCSVMHEALHNHYTQKSLSLSPGKGGGGSGGGGSGGGGSKLNKHNCLQRRCMPLHSRVPFP
As for B5, in assay [1], the “ERK EC50” value stood at 0.92 nM, the “beta-Arrestin EC50 (nM) Exp. 1” value is 1120 nM, the “beta-Arrestin EC50 (nM) Exp. 2” value came to 59.9 nM and the “cAMP EC50 (nM) Exp. 1” value was determined as 0.349 nM. Besides, the “cAMP EC50 (nM) Exp. 2” value in assay [1] was 1.5 nM. Further, in assay [2], the “Internalization Score” value worked out at 3.
